Entries after “also recorded” stand apart in the source; their conditions may differ.
Legend:
BACE1 = molecular target: T1, BACE1 (Cricetulus griseus, UniProt G3IAK4); experiment: BACE1 inhibitor treatment of CHO cells expressing human APPV717F, Western blot of supernatants; type: cell-based; settings: 2 μM
T1 construct: endogenous in cells; host or cells: CHO cells overexpressing human APPV717F (CHO / 7PA2)
Method: a) Supernatants of CHO cells expressing human APPV717F without or with BACE1 inhibition (BI; 2 μM Merck IV) were compared to synthetic peptides of Aη-β and Aη-α. Increased Aη-α peptide levels were observed upon BACE1 inhibitor treatment with 2D8 and 2E9 antibodies. The fragment with the lowest molecular weight, co-migrating with the synthetic peptide Aη-β, disappeared upon BACE1 inhibition b) After overnight incubation of DIV 16 primary hippocampal neurons without or with the BACE1 inhibitor (BI; 2 μM Merck IV), supernatants were analyzed by Western blotting. […] Total levels of secreted APP (22C11) were unchanged while sAPP-α levels increased. […] Inhibitor treated mice and vehicle treated controls were sacrificed and analyzed after 5, 8 or 24 h. […]
CHO and 7PA2^44 cells were grown in DMEM/F12 (Thermo Scientific) supplemented with 10% fetal calf serum (FCS, Thermo Scientific) plus Penicillin/Streptomycin and NEAA (Non-essential amino acids, PAA) in a humid incubator with 5% CO2 at a temperature of 37° C. […] The protein concentration of lysates was determined using the Uptima BC Assay Protein Quantitation kit (Interchim).
Proteins were separated under denaturing conditions using discontinuous SDS-PAGE. […] CTFs, Aη and Aβ were detected after transfer on Nitrocellulose membranes (Protran BA85; GE Hlealthcare), while other proteins were blotted on PVDF (Immobilon-P, Merck Millipore). […]

hippocampal LTP = experiment: Long-term potentiation (LTP) recordings in acute hippocampal slices (fEPSP at the CA3-CA1 synapse); type: cell-based, mouse; settings: for fEPSP baseline responses after incubation with SEC fractions: 1/15 dilution, 15 min bath application before LTP induction
Method: a) Aη-α and Aη-β peptides were expressed in CHO cells and collected in OPTIMEM medium. […] Higher molecular weight bands are most likely due to posttranslational modification by glycosylation. b-e) SEC fractions enriched for Aη were diluted (1:15) in ACSF for the treatment of hippocampal slices and LTP measurements. Aη-α, Aη-β and control SEC fractions (obtained from CHO cells transfected with the empty vector) were perfused over mouse hippocampal slices for 15 min after obtaining a stable baseline of a fEPSP at the CA3-CA1 synapse.
OPTIMEM was used to collect CHO cell supernatants. SEC was performed with concentrated CHO supernatants using a FPLC (ÄKTApurifier) equipped with a Superdex75 column (GE Healthcare). 1 ml samples were collected with a mobile phase flow rate set at 0.5 ml/min in standard ACSF. Acute hippocampal slices were prepared from Swiss mice (PND20-30) and kept in ACSF^42. Extracellular field excitatory post-synaptic potentials (fEPSPs) were obtained from CA1 pyramidal neurons. After 15 minutes of bath application of SEC fractions^43, LTP was induced by high frequency stimulation (2 pulses of 100 Hz for 1 second with a 20 second inter-pulse interval). LTP was recorded for 60 minutes and statistical analysis was performed on the last 15 minutes of recording compared to baseline fEPSP values.
Transverse hippocampal slices ([…]) were prepared from postnatal day 20-30 Swiss mice following standard procedures^56. Slices were cut in ice-cold oxygenated (95% O2/5% CO2) solution containing 206 mM sucrose, 2.8 mM KCl, 1.25 mM NaH2PO4, 2 mM MgSO4, 1 mM MgCl2, 1 mM CaCl2, 26 mM NaHCO3, 0.4 mM sodium ascorbate, 10 mM glucose (pH 7.4). For recovery (1 h), slices were incubated at 27° C. in oxygenated standard artificial cerebrospinal fluid (ACSF) containing: 124 mM NaCl, 2.8 mM KCl, 1.25 mM NaH2PO4, 2 mM MgSO4, 3.6 mM CaCl2, 26 mM NaHCO3, 0.4 mM sodium ascorbate, 10 mM glucose (pH 7.4)^57. Slices were inspected in a chamber on an upright microscope (Slicescope, Scientifica Ltd) with IR-DIC illumination and were perfused with the oxygenated ACSF at 27±1° C. Field excitatory post-synaptic potentials (fEPSPs) were recorded in the stratum radiatum of the CA1 region using a glass electrode (filled with 1 M NaCl/10 mM HEPES, pH 7.4) and the stimuli (30% of maximal fEPSP) were delivered to the Schaeffer Collateral pathway by a monopolar glass electrode (filled with ACSF). Electrodes were specifically placed just below the surface of the slice to maximize the exposure to circulating peptides. A minimum of 15 minutes stable baseline was first obtained in standard ACSF followed by another 15 minutes of bath application of ACSF containing SEC fractions (CHO, Aη-α or Aη-β; 1/15 dilution, interleaved recordings) using re-circulation with a peristaltic pump at 2.5-3 ml min^−1 while being continuously aerated with 95% oxygen. […] In the continuous presence of the ACSF/SEC solution, LTP was then induced using a high frequency stimulation (HSF) protocol with 2 pulses of 100 Hz for 1 sec with 20 see interval between pulses, and recorded for one hour. Control recordings (no application of SEC fractions) were obtained in an interleaved fashion where ACSF was re-circulated using an identical procedure. For LTP analysis, the first third of the fEPSP slope was calculated in baseline condition (15 minutes prior to induction of LTP and for 60 minutes post-induction). […]

[1] = SEC fractions from conditioned media of CHO cells, diluted 1:15 in ACSF, perfused 15 min before HFS, LTP 45-60 min post-HFS

T1 sequence (G3IAK4 22-501): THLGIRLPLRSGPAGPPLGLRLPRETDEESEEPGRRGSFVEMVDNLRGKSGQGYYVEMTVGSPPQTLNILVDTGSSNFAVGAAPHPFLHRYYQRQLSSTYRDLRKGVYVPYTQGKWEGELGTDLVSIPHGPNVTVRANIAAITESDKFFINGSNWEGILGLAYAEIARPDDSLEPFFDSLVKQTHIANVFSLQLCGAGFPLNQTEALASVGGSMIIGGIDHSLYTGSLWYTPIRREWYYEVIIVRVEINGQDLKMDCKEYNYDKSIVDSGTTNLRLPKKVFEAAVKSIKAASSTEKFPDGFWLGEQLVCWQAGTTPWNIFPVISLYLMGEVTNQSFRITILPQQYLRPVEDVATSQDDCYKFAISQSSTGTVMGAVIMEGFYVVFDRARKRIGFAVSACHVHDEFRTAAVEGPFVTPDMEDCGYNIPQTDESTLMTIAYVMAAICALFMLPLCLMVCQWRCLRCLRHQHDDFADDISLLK

Row | Molecule | lowest molecular weight fragment co-migrating with synthetic Aη-β (BACE1) | Aη-α peptide levels in supernatant (BACE1; 2D8 and 2E9 antibodies) | effect on LTP (hippocampal LTP; 100 nM final in 25 ml re-circulating ACSF, vs interleaved ACSF recordings, 45-60 min post-LTP induction) | fEPSP baseline responses after incubation with SEC fractions (hippocampal LTP) | effect on LTP (hippocampal LTP; [1])
1 | C[C@@H](NC(=O)c1cc(C(=O)N[C@@H](Cc2ccccc2)[C@H](O)CNC2CC2)cc(N(C)S(C)(=O)=O)c1)c1ccccc1 [Merck IV] | disappeared | Increased | – | – | –
2 | AβS26C dimers: AβS26C dimers from JPT Peptide Technologies, Germany [reference compound] | – | – | reduced | – | –
3 | Aη-β: Aη-β-peptide (residues 505-596 of P05067-4), 92 aa, expressed in CHO cells and enriched by SEC (protein, listed as Homo sapiens) MISEPRISYGNDALMPSLTETKTTVELLPVNGEFSLDDLQPWHSFGADSVPANTENEVEPVDARPAADRGLTTRPGSGLTNIKTEEISEVKM | – | – | – | No alterations | had no effect; also recorded: did not significantly inhibit
4 | Aη-α: Aη-α-peptide (residues 505-612 of P05067-4), 108 aa, expressed in CHO cells and enriched by SEC (protein, listed as Homo sapiens) MISEPRISYGNDALMPSLTETKTTVELLPVNGEFSLDDLQPWHSFGADSVPANTENEVEPVDARPAADRGLTTRPGSGLTNIKTEEISEVKMDAEFRHDSGYEVHHQK | – | – | – | No alterations | significantly inhibited

Reference: patent US20190309035A1, “PEPTIDE OR COLLECTION OF PEPTIDES DERIVED FROM AMYLOID PRECURSOR PROTEIN” (Ludwig-Maximilians-Universität München, priority 2015, published 2019)
